This note sets out measurements from publication PMC2720631.

The target of the assay is TRIP8b (mouse (endogenous in forebrain cortex)) (UniProt Q8C437). In words: co-IP.

Where only a bound is given, the exact number is not on record here.

HCN1, sequence (O88704 whole entry): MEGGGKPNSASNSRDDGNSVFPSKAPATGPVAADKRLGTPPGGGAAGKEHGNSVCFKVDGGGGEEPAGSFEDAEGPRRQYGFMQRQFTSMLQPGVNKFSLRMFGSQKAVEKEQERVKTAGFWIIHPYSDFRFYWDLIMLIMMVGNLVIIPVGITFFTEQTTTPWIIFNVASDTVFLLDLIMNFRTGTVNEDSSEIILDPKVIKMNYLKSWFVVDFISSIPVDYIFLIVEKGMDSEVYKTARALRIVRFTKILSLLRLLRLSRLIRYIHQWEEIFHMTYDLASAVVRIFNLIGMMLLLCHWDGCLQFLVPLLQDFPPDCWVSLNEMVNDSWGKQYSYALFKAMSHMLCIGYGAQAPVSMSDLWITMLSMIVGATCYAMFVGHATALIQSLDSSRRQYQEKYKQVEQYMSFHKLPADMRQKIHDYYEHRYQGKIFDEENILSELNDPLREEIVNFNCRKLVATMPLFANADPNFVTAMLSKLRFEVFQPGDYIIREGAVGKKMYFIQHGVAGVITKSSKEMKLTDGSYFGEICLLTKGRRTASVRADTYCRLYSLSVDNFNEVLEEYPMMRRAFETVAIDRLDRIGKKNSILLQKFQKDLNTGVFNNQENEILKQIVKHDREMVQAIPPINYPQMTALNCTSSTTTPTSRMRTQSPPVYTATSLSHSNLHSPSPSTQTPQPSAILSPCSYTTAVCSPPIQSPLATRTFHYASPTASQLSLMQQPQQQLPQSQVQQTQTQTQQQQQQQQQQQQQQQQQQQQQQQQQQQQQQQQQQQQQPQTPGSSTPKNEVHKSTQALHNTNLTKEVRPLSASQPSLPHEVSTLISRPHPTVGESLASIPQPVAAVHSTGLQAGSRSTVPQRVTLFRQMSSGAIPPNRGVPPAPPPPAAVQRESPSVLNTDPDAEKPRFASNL
UniProt Q8C437, sequence (Q8C437 whole entry): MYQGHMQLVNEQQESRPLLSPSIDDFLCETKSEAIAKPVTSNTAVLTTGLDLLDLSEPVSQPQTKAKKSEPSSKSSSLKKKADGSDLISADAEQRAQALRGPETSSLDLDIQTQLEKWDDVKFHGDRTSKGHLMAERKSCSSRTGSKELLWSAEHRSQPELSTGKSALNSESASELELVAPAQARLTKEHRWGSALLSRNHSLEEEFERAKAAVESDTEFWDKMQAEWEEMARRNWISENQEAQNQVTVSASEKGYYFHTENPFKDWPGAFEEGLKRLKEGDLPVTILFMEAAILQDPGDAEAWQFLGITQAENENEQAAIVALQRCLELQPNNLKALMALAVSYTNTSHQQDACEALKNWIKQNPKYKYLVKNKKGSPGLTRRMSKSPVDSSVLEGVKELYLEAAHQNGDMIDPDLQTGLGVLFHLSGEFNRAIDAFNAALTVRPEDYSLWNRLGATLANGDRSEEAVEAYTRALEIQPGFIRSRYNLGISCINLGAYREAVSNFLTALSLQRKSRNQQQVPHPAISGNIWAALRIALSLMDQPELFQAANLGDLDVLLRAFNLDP

In turn, “HCN1 (from UniProt O88704 1-910) (natural protein)” showed a percent of HCN1 co-immunoprecipitated of under 50%.
